# Residue numbers refer to the chain shown, from its start.
# T1: IL-36R naturally expressed on OVCAR8 cells and on normal human epidermal keratinocytes (NHK cells) (human, UniProt Q9HB29 20-575)
# T1 sequence (looked up): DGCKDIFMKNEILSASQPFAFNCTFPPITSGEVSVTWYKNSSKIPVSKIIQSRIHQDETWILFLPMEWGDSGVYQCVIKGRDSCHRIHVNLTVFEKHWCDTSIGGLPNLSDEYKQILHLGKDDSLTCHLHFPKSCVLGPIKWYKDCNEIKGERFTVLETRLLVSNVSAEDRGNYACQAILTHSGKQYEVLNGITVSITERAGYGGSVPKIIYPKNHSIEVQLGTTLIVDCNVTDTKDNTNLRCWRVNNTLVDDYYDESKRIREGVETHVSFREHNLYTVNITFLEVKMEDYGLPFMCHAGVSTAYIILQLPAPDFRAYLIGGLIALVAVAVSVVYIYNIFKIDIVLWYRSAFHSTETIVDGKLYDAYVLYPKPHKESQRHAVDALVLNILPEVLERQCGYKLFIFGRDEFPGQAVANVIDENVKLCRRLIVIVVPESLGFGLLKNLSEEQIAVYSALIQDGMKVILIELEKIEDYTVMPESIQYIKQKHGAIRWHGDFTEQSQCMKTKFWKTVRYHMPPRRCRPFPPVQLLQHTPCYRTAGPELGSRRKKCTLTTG
# B1: hz84C4-1.1 (antibody, human IgG4 S228P, kappa, V domains shown)
# VH: QVQLVQSGAEVKKPGASVKVSCKASGYFFTSYWMNWVRQAPGQGLEWMGMIHPYDSETRYAQKFQGRVTMTVDKSTSTVYMELSSLRSEDTAVYYCASSTTAFAYWGQGTLVTVSS
# VL: DIQMTQSPSSLSASVGDRVTITCRASQDIGNALNWYQQKPGKAPKRLIYATSSLDPGVPSRFSGSRSGTDFTLTISSLQPEDFATYYCLQYASSPYTFGQGTKVEIKR
# notes: Humanized, human IgG4 / kappa
# B2: hz84C4-1.5 (antibody, human IgG4 S228P, kappa, V domains shown)
# VH: B1 VH with A24V, R38N, Y60L, Q65K
# VL: B1 VL
# notes: Humanized, human IgG4 / kappa
# B3: hz84C4-2.3 (antibody, human IgG4 S228P, kappa, V domains shown)
# VH: B1 VH with H52Y
# VL: B1 VL with Y36L, F71Y
# notes: Humanized, human IgG4 / kappa
# B4: hz84C4-1.3 (antibody, human IgG4 S228P, kappa, V domains shown)
# VH: B1 VH with H52Y
# VL: B1 VL
# notes: Humanized, human IgG4 / kappa
# B5: hz84C4-1.4 (antibody, human IgG4 S228P, kappa, V domains shown)
# VH: B1 VH with F28Y, Y60L, Q65K
# VL: B1 VL
# notes: Humanized, human IgG4 / kappa
# B6: hz84C4-1.2 (antibody, human IgG4 S228P, kappa, V domains shown)
# VH: B1 VH with M50Y
# VL: B1 VL
# notes: Humanized, human IgG4 / kappa
# B7: hz84C4-2.5 (antibody, human IgG4 S228P, kappa, V domains shown)
# VH: B1 VH with A24V, R38N, Y60L, Q65K
# VL: B1 VL with Y36L, F71Y
# notes: Humanized, human IgG4 / kappa
# B8: hz84C4-2.4 (antibody, human IgG4 S228P, kappa, V domains shown)
# VH: B1 VH with F28Y, Y60L, Q65K
# VL: B1 VL with Y36L, F71Y
# notes: Humanized, human IgG4 / kappa
# B9: hz84C4-2.2 (antibody, human IgG4 S228P, kappa, V domains shown)
# VH: B1 VH with M50Y
# VL: B1 VL with Y36L, F71Y
# notes: Humanized, human IgG4 / kappa
# B10: hz84C4-2.1 (antibody, human IgG4 S228P, kappa, V domains shown)
# VH: B1 VH
# VL: B1 VL with Y36L, F71Y
# notes: Humanized, human IgG4 / kappa
# Biological target: T1, IL-36R naturally expressed on OVCAR8 …
# Assay: cell-based or functional assay
IC50 (M); hIL36α; IL-8 production,IC50 (M); hIL36αβγ; IL-8 production,IC50 (M); hIL36β; IL-8 production,IC50 (M); hIL36γ; IL-8 production,Maximum inhibition rate %; hIL36α; IL-8 production,Maximum inhibition rate %; hIL36αβγ; IL-8 production,Maximum inhibition rate %; hIL36β; IL-8 production,Maximum inhibition rate %; hIL36γ; IL-8 production,Binder
2.62e-11 M,5.25e-11 M,2.27e-11 M,1.44e-11 M,103%,93.7%,103%,103%,B1
2.87e-11 M,2.77e-11 M,1.55e-11 M,1.27e-11 M,101%,97%,101%,109%,B2
~9.24e-13 M,8.23e-11 M,~2.73e-11 M,8.76e-10 M,44.5%,33.1%,23.4%,57%,B3
~2.41e-09 M,~6.51e-12 M,~1.43e-09 M,2.13e-09 M,16.9%,40.7%,19.4%,57.5%,B4
3.71e-11 M,5.76e-11 M,3.48e-11 M,5.01e-12 M,94.4%,92.5%,93.5%,109%,B5
1.02e-10 M,6.67e-11 M,9.53e-12 M,3.42e-12 M,92.5%,82.8%,91.2%,98.3%,B6
4.81e-11 M,6.61e-11 M,1.24e-11 M,8.4e-12 M,99.7%,98.5%,102%,103%,B7
4.68e-11 M,1.57e-10 M,6.52e-11 M,1.12e-11 M,95%,95.6%,92.7%,101%,B8
8.45e-11 M,6.63e-11 M,4.64e-11 M,6.21e-11 M,95.1%,100%,95.8%,15%,B9
5.23e-11 M,4.82e-11 M,3.18e-11 M,1.81e-11 M,99.5%,107%,96.8%,97.5%,B10
